For one molecule, Kd results are on record in publication PMC5447677, “Pathogenic Leptospira Secreted Proteases Target the Membrane Attack Complex: A Potential Role for Thermolysin in Complement Inhibition” (Frontiers in Microbiology, 2017).

Common to all, as to experiment: ELISA; thermolysin coated on microtiter plates (100 ul; 10 ug/ml, 16 h, 4 C), blocked with 3% BSA in PBS; C6, C7, C8 or C9 added (100 ul; 0-5 ug/ml) for 1 h at 37 C; detected with goat polyclonal antibodies, absorbance at 492 nm; Kd by non-linear regression Y = Bmax*X/(Kd + X); for C6 also with a fixed amount (1 ug) in 0-600 mM NaCl (reduced only at 600 mM) or 0.05-1 ug heparin (dose-dependent inhibition)
Common to all, as to settings: both partners purified

For experiment [1], the target named is T1, Complement component C6, purified from human plasma (human, UniProt P13671 22-934).
T1 construct: human complement component C6, single polypeptide chain (~100 kDa), purified from plasma; source: bought: Complement Technology (purified from human plasma)

Experiment [2] has as its target T2, Complement component C7, purified from human plasma (human, UniProt P10643 23-843).
T2 construct: human complement component C7, 95 kDa single chain, purified from plasma; source: bought: Complement Technology (purified from human plasma)

Experiment [3] deals with T3, Complement component C8, purified from human plasma (human, UniProt P07357 31-584; P07358 55-591; P07360 21-202).
T3 construct: human complement component C8 alpha chain (~64 kDa), purified from plasma as intact C8; human complement component C8 beta chain (~64 kDa), purified from plasma as intact C8; human complement component C8 gamma chain (~22 kDa), purified from plasma as intact C8; Intact C8 of three polypeptide chains (alpha, beta, gamma); source: bought: Complement Technology (purified from human plasma); copies: …

Experiment [4] deals with T4, Complement component C9, purified from human plasma (human, UniProt P02748 22-559).
T4 construct: human complement component C9, single 71 kDa polypeptide chain, purified from plasma; source: bought: Complement Technology (purified from human plasma)
T4 sequence (P02748 22-559): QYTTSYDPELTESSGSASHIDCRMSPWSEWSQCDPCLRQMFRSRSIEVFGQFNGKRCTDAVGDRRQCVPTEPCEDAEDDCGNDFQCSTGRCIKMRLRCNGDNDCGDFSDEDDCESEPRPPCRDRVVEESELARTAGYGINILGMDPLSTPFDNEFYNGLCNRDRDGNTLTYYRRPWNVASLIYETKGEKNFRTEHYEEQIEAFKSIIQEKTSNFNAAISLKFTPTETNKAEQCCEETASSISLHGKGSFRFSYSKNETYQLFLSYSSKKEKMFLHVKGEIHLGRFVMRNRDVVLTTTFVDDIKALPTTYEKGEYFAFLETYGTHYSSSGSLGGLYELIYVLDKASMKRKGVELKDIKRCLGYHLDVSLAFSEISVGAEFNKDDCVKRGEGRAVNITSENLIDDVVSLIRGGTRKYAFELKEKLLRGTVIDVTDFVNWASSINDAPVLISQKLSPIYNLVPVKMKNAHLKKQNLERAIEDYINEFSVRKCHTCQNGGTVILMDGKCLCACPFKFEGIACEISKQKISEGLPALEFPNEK

T3 sequence (P07357 31-584, chain 1 of 3): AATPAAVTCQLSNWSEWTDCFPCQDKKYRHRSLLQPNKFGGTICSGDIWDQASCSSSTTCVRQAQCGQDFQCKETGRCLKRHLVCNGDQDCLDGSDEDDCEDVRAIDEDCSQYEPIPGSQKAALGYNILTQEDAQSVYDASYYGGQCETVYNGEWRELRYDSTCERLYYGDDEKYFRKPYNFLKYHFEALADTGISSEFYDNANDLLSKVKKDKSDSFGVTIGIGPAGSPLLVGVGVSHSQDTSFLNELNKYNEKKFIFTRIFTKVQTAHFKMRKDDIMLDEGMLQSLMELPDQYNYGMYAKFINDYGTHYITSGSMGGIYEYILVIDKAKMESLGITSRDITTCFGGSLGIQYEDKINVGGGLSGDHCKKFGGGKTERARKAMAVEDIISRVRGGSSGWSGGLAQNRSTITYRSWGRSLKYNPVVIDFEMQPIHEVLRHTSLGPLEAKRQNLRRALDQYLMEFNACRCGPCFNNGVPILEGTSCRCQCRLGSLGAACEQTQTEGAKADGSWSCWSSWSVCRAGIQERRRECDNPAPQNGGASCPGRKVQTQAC
T3 sequence (P07358 55-591, chain 2 of 3): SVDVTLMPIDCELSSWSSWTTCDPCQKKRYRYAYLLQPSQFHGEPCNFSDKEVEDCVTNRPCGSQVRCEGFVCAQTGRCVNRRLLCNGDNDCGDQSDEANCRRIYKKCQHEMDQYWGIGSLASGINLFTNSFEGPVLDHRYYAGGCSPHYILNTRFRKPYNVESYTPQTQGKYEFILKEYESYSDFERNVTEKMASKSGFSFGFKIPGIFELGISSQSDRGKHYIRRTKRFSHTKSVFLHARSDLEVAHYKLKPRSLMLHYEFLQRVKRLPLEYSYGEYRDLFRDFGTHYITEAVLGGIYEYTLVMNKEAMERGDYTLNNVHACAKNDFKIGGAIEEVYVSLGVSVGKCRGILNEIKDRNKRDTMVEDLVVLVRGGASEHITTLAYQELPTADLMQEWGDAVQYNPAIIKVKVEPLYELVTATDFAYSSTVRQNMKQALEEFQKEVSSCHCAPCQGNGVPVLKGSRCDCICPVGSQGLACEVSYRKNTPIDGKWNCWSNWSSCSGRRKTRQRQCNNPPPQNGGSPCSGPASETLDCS
T3 sequence (P07360 21-202, chain 3 of 3): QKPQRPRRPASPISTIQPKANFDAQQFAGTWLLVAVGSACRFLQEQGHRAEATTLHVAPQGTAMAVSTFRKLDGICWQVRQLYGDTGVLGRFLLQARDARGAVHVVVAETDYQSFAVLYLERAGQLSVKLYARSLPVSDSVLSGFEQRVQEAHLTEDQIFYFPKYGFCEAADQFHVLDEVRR
T2 sequence (P10643 23-843): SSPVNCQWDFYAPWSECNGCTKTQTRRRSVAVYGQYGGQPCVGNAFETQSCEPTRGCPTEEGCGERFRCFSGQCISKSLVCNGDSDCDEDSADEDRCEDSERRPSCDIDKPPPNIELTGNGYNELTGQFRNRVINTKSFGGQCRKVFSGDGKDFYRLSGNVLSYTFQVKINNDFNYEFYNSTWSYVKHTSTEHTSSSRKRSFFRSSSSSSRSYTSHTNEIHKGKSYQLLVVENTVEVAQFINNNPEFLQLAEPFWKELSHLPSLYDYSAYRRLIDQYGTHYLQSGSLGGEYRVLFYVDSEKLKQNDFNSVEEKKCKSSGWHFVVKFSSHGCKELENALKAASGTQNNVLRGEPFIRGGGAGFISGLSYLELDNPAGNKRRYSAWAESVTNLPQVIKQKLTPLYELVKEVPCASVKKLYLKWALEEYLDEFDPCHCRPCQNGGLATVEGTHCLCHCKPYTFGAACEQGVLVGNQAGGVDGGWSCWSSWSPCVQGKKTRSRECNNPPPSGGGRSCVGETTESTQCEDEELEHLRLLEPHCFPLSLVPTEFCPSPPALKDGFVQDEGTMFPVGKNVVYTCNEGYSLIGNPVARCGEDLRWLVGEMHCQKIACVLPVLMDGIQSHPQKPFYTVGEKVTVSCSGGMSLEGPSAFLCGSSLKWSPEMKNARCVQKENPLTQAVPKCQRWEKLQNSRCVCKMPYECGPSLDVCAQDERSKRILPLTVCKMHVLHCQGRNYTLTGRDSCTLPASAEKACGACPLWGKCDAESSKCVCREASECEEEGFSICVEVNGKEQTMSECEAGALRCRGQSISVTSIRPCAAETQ
T1 sequence (P13671 22-934): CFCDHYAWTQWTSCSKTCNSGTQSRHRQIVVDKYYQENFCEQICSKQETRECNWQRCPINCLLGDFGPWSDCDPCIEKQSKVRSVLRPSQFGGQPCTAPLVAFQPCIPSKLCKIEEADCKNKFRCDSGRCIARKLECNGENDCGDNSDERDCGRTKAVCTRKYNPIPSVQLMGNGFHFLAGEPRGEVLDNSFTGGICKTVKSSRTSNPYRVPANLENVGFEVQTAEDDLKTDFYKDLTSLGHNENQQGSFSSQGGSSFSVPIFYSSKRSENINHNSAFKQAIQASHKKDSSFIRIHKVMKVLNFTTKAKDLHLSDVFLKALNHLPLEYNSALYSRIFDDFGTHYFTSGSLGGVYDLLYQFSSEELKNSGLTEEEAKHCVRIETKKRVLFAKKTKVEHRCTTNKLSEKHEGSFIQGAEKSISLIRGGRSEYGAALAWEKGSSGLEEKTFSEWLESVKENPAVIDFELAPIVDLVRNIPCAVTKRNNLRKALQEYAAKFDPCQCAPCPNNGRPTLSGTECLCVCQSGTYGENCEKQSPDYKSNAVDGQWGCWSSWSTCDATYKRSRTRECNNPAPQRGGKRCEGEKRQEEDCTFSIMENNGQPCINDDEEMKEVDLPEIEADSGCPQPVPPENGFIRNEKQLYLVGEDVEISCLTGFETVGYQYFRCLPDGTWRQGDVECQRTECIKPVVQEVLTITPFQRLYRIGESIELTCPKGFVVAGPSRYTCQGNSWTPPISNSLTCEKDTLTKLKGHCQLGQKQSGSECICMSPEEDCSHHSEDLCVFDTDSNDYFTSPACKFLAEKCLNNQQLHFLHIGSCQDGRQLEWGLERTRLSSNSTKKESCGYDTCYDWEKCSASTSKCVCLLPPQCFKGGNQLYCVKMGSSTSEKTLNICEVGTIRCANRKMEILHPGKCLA

B1: recombinant thermolysin (LIC13322), PepSY-M4 fragment (domain or fragment)
chain: EFYQVPENFNSSPKLSESEALSKTLKHIGAKKYIWESVEREAALKRKKNDPNASYFPKGELLVYEHSLGKSNTKKEFRLAYKFGIASIDPPISRYVYVDSNSGEILSSKDARRYEGVQFPSPKPPIEIDIDYSRCIIDKEYCIEQGTAMTRFSGLQSITTWTAGKTNHFELKDNSRGGGIYTYSWEFVKDPLEDIQLLNIPMIDTNNSWSQSEYHDNYNHDALLDAHWGIEMTYDYFKSIHNRLSYDGDNSRIFNNVHYFNAFVANNAYWDPVTEEIYYVYCPHKNSICKGFNLPILLDPKYEDFTSLDIVSHEFGHGINGDLAGFNLDMEPGALDEGFSDIWNVGVNNYVNKVLGMQKNIWLVGDETVPGGGMRSVSNPKSTTVMSPGPNTYHGDLWDFEDNEAHTNSLVLSHWFYTLSKGKQGFNDYECTYNVSGIGIEKAERIAYVALLFLSSTSGYTSARTYAIIAAKLLYGLFSSEVKSTIDAWDAVAVPAETTSRGGQGMVRPRHYIASVKLSNVTNDSGNDCGYKDNSYLLPTVLRGVTYNMVLLSQGSASNPSKVHKWRVWIDFNQNGSFESSEMVVQDTVNSSFGGTLQKSIKIPTNALTGYAKMRVSMKAAQSGEAYQGSSESFVEGEVEDYIVSILDFSL
On to B1, for which the dissociation constant (Kd) in experiment [1] was 31.8 ± 2.2 nM; in experiment [2], 17.8 ± 1.3 nM; in experiment [3] it was 62 ± 7.1 nM; in experiment [4], 56.8 ± 5.2 nM.
